Data: patent EP0308499B1, “SUBSTRATE ASSISTED CATALYSIS” (GENENCOR INTERNATIONAL, INC., priority 1987, dated 1988)
Numbered stars: 1 amine (or outer) side, 2 acyl side, 3 side chain; on linkers, the order of the positions; unused ones are H or OH. Peptide text beside a SMILES is read from it. * marks the point of attachment. pNA = O=[N+]([O-])c1ccc(N*)cc1; Suc = O=C(CCC(=O)[*:2])[*:1]

What was measured:
[1] = target: T1, B. amyloliquefaciens subtilisin mutant Cys-24/Ala-64 (Ser-24→Cys/His-64→Ala) (Bacillus amyloliquefaciens, UniProt P00782, H171A/S131C); assay: Kinetic analysis of hydrolysis of p-nitroanilide peptide substrates (release of ρ-nitroaniline, Eadie-Hofstee plot); type: biochemical
T1 construct: The His-64→Ala mutation caused a severe reduction in secretion of mature subtilisin; made in house; host or cells: Bacillus subtilis BG2036, co-cultured with helper cells carrying active Ala-48→Glu subtilisin
T1 sequence (P00782 108-382 S131C/H171A): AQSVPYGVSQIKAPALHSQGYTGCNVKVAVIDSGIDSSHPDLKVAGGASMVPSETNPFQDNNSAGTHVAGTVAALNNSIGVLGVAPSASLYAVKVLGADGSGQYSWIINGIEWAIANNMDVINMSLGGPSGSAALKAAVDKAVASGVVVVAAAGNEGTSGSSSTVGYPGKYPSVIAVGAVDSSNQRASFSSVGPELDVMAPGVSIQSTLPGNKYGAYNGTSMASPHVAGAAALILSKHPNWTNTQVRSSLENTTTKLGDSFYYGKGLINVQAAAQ
Protocol: (§1) The kinetic parameters for Cys-24 and Cys-24/Ala-64 were determined against the substrates N-succinyl-L-Phe-L-Ala-L-[X)-L-Phe-ρ-nitroanilide (abbreviated sFAXF-pNA), where X (P2 position) was Ala, Gln, or His (Table I). […] By comparison, the His-64→Ala mutation causes a drop of ∿10⁶ fold in kcat/Km against the Ala and Gln P2 substrates. Almost all of the decrease in catalytic efficiency is caused by a decreased kcat term (up to 10⁶ times), although smaller but significant increases appear in Km. […] Although the proportion of functional active sites in Cys-24/Ala-64 enzyme preparations could not be determined directly by such active site labeling, enzyme that was purified by additional native gel electrophoresis (Example 6) had identical kinetic parameters to Cys-24/Ala-64 described in Table V.

[2] = target: β-lactamase, Serine-70 substituted with cysteine (thiol-containing β-lactamase) (Escherichia coli, UniProt P62593, S68C); details: cited from earlier work; for kcat: relative to that of a wild type enzyme
[3] = target: T1, B. amyloliquefaciens subtilisin mutant Cys-24/Ala-64 (Ser-24→Cys/His-64→Ala); assay: Inhibition by the active site reagent PMSF; type: biochemical; details: concentration not given
Protocol: as §1
Several lines of evidence indicate that the activity we attribute to the Cys-24/Ala-64 enzyme is not the result of any other protease contamination. Firstly, the extreme substrate preference for His at the P2 position is unlike wild-type subtilisin or any known Bacillus protease. […] Finally, the kinetic values determined for Cys-24/Ala-64 that was additionally purified by native gel electrophoresis (Example 6) are essentially the same as these reported in Table V.

[4] = substrate: C[C@H](NC(=O)[C@H](Cc1ccccc1)NC(=O)CCC(=O)O)C(=O)N[C@@H](Cc1c[nH]cn1)C(=O)N[C@@H](Cc1ccccc1)C(=O)Nc1ccc([N+](=O)[O-])cc1; assay: Kinetic analysis of hydrolysis of p-nitroanilide peptide substrates (release of ρ-nitroaniline, Eadie-Hofstee plot); type: biochemical, B. amyloliquefaciens; details: other: 0.10 M Tris-HCl (pH 8.6), 10 mM DTT, 25±0.1°C, 25.0 °C
Protocol: as §1

[5] = substrate: C[C@H](NC(=O)[C@H](C)NC(=O)[C@H](Cc1ccccc1)NC(=O)CCC(=O)O)C(=O)N[C@@H](Cc1ccccc1)C(=O)Nc1ccc([N+](=O)[O-])cc1; assay: as above; type: biochemical, B. amyloliquefaciens; details: other: 0.10 M Tris-HCl (pH 8.6), 10 mM DTT, 25±0.1°C, 25.0 °C
Protocol: as §1

[6] = substrate: C[C@H](NC(=O)[C@H](Cc1ccccc1)NC(=O)CCC(=O)O)C(=O)N[C@@H](CCC(N)=O)C(=O)N[C@@H](Cc1ccccc1)C(=O)Nc1ccc([N+](=O)[O-])cc1; assay: as above; type: biochemical, B. amyloliquefaciens; details: other: 0.10 M Tris-HCl (pH 8.6), 10 mM DTT, 25±0.1°C, 25.0 °C
Protocol: as §1

Molecule: C[C@H](NC(=O)[C@H](Cc1ccccc1)NC(=O)CCC(=O)O)C(=O)N[C@@H](Cc1c[nH]cn1)C(=O)N[C@@H](Cc1ccccc1)C(=O)Nc1ccc([N+](=O)[O-])cc1 [His, N-succinyl-L-Phe-L-Ala-L-X-L-Phe-ρ-nitroanilide] (Suc-FAHF-pNA)
- catalytic efficiency below wild-type ([1]; kcat/Km compared with wild-type subtilisin): 5,000 fold
- kcat of the His P2 substrate larger than that of the Ala P2 substrate by a factor ([1]; pH 8.6, Table V data): 2,000
- kcat of the His P2 substrate larger than that of the Gln P2 substrate by a factor ([1]; pH 8.6, Table V data): 500

Molecule: O=C(Cc1cccs1)N[C@@H]1C(=O)N2C(C(=O)O)=C(/C=C/c3ccc([N+](=O)[O-])cc3[N+](=O)[O-])CS[C@H]12 [nitrocefin]
- Km ([2]; relative to that of the wild type): greater than 10 fold

Molecule: CC1(C)S[C@@H]2[C@H](NC(=O)[C@H](N)c3ccccc3)C(=O)N2[C@H]1C(=O)O [ampicillin]
- kcat [2]: 1-2%

Molecule: O=S(=O)(F)Cc1ccccc1 [PMSF, phenylmethylsulfonyl-fluoride]
- inhibition by PMSF [3]: completely resistant to inhibition

Molecule: CC1(C)S[C@@H]2[C@H](NC(=O)Cc3ccccc3)C(=O)N2[C@H]1C(=O)O [benzyl penicillin]
- kcat [2]: 1-2%

B1: B. amyloliquefaciens subtilisin, recombinant Cys-24 (Ser-24→Cys; kinetically essentially identical to wild-type) (Bacillus amyloliquefaciens; S131C) (protein)
chain: AQSVPYGVSQIKAPALHSQGYTGCNVKVAVIDSGIDSSHPDLKVAGGASMVPSETNPFQDNNSHGTHVAGTVAALNNSIGVLGVAPSASLYAVKVLGADGSGQYSWIINGIEWAIANNMDVINMSLGGPSGSAALKAAVDKAVASGVVVVAAAGNEGTSGSSSTVGYPGKYPSVIAVGAVDSSNQRASFSSVGPELDVMAPGVSIQSTLPGNKYGAYNGTSMASPHVAGAAALILSKHPNWTNTQVRSSLENTTTKLGDSFYYGKGLINVQAAAQ
notes: Maturation of the primary subtilisin gene product (preprosubtilisin) to subtilisin in B. substilis is believed to be mediated by autoproteolysis; made in house
- Km [4]: 23 µM
- kcat [4]: 4.6 s⁻¹
- kcat/Km [4]: 2.0 x 10^5 s^-1M^-1
- Km [5]: 10 µM
- kcat [5]: 8.1 s⁻¹
- kcat/Km [5]: 8.0 x 10^5 s^-1M^-1
- Km [6]: 39 µM
- kcat [6]: 7.0 s⁻¹
- kcat/Km [6]: 1.8 x 10^5 s^-1M^-1

B2: B. amyloliquefaciens subtilisin mutant Cys-24/Ala-64 (Ser-24→Cys/His-64→Ala) (Bacillus amyloliquefaciens; H171A/S131C) (protein)
chain: AQSVPYGVSQIKAPALHSQGYTGCNVKVAVIDSGIDSSHPDLKVAGGASMVPSETNPFQDNNSAGTHVAGTVAALNNSIGVLGVAPSASLYAVKVLGADGSGQYSWIINGIEWAIANNMDVINMSLGGPSGSAALKAAVDKAVASGVVVVAAAGNEGTSGSSSTVGYPGKYPSVIAVGAVDSSNQRASFSSVGPELDVMAPGVSIQSTLPGNKYGAYNGTSMASPHVAGAAALILSKHPNWTNTQVRSSLENTTTKLGDSFYYGKGLINVQAAAQ
- Km ([4]; in the presence of PMSF): 380 µM
- kcat ([4]; in the presence of PMSF): 0.016 s⁻¹
- kcat/Km ([4]; in the presence of PMSF): 42 s^-1M^-1
- Km ([5]; in the presence of PMSF): 32 µM
- kcat ([5]; in the presence of PMSF): 8.1e-06 s⁻¹
- kcat/Km ([5]; in the presence of PMSF): 0.25 s^-1M^-1
- Km ([6]; in the presence of PMSF): 150 µM
- kcat ([6]; in the presence of PMSF): 3e-05 s⁻¹
- kcat/Km ([6]; in the presence of PMSF): 0.20 s^-1M^-1
